Tests used:
Assay in all cases: ELISA, lysate on plate-bound antigen
[1] = biological target: human serum albumin (human) (UniProt P02768)
[2] = biological target: unrelated Fc-fused recombinant protein
[3] = biological target: T1, recombinant biotinylated PD-L1 (rhPD-L1/Fc Chimera, R&D Systems 156-B7) (human, UniProt Q9NZQ7 19-238, biotinylated (sites not given))
T1 construct: Bought Fc chimera; also called human PD-L1
Description: Streptavidin-coated Maxisorp plates (Nunc catalog 436110) were blocked for 1 h in Starting Block T20 (Pierce) and then coated with biotinylated PD-L1 (using same antigen as in panning) or negative controls (an unrelated Fc-fused recombinant protein and human serum albumin) for 1 h. Plates were rinsed with TBST and diluted lysate was applied to plates for 1 h. Following additional rinses, wells were treated with HRP-conjugated anti-FN3 domain antibody (PAB25) for 1 h and then assayed with POD (Roche catalog 11582950001).

T1 sequence (Q9NZQ7 19-238, change not shown): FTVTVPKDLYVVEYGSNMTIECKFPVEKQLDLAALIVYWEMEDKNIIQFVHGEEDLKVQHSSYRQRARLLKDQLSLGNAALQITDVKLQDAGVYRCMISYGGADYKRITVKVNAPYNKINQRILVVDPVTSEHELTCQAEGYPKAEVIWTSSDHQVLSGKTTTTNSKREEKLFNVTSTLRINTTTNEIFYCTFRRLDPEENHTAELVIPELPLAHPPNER
Chain of human serum albumin (human) (P02768 25-609 limits assumed): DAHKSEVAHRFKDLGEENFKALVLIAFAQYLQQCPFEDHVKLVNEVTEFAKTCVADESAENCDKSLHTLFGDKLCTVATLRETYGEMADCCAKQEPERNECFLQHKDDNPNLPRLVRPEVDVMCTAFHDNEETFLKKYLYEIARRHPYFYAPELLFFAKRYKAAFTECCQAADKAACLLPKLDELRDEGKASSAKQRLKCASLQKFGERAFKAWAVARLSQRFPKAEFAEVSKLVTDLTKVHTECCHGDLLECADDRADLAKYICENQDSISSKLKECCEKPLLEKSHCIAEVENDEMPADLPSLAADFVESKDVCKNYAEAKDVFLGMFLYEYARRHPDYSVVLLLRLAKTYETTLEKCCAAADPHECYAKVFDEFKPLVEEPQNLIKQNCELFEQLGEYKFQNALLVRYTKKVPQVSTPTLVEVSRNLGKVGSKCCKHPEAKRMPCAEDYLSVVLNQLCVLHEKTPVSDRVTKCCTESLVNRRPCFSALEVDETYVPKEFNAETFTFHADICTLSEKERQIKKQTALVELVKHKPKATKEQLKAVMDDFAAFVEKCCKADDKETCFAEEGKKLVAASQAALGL

B1: ISOP121GR5P1F10 (designed binder, not shown: small tags and cut ends)
chain: LPAPKNLVVSRVTEDSARLSWTAPDAAFDSFFIDYVERATVGEAIALNVPGSKRSYALTGLKPGTEYFVKIRGVKGGLKSKPLWAWFTT
notes: FN3 domain; E. coli lysate in the ELISA
[1]
  ELISA HSA (RSU): 640 RSU
[2]
  ELISA Fc Control (RSU): 640 RSU
[3]
  ELISA PD-L1 Fc (RSU): 577000 RSU

B2: ISOP121AR5P1H2 (designed binder, not shown: small tags and cut ends)
chain: LPAPKNLVVSRVTEDSARLSWVIDEFIPLFDSFLIQYQESEKVGEAIVLTVPGSERSYDLTGLKPGTEYTVSIYGVLAKNIGISNPLSAIFTT
notes: as for B1
[1]
  ELISA HSA (RSU): 1120 RSU
[2]
  ELISA Fc Control (RSU): 880 RSU
[3]
  ELISA PD-L1 Fc (RSU): 927000 RSU

B3: ISOP121GR5P1G7 (designed binder, not shown: small tags and cut ends)
chain: LPAPKNLVVSRVTEDSARLSWTAPDAAFDSFHIRYHEYDKNGEAIQLYVPGSERSYDLTGLKPGTEYGVYIHGVKGGGRSKPLWAHFTT
notes: as for B1
[1]
  ELISA HSA (RSU): 800 RSU
[2]
  ELISA Fc Control (RSU): 800 RSU
[3]
  ELISA PD-L1 Fc (RSU): 368000 RSU

B4: ISOP194GR9P1E9 (designed binder, not shown: small tags and cut ends)
chain: LPAPKNLVVSRVTEDSARLSWTAPDAAFDSFHIRYHEYDKNGEAIQLYVPGSERSYDLTGLKPGTEYGVFIWGVKGGLKSKPLWAWFTT
notes: as for B1
[1]
  ELISA HSA (RSU): 1200 RSU
[2]
  ELISA Fc Control (RSU): 720 RSU
[3]
  ELISA PD-L1 Fc (RSU): 2.82e+06 RSU

B5: ISOP121AR5P1A10 (designed binder, not shown: small tags and cut ends)
chain: LPAPKNLVVSRVTEDSARLSWPDWSNSEYFDSFLIQYQESEKVGEAIVLTVPGSERSYDLTGLKPGTEYTVSIYGVYARHRLFVSNPLSAIFTT
notes: as for B1
[1]
  ELISA HSA (RSU): 560 RSU
[2]
  ELISA Fc Control (RSU): 1120 RSU
[3]
  ELISA PD-L1 Fc (RSU): 789000 RSU

B6: ISOP194AR9P1G7 (designed binder, not shown: small tags and cut ends)
chain: LPAPKNLVVSRVTEDSARLSWGDDFNSEYFDSFLIQYQESEKVGEAIVLTVPGSERSYDLTGLKPGTEYTVSIYGVYTRAVVFTSNPLSAIFTT
notes: as for B1
[1]
  ELISA HSA (RSU): 560 RSU
[2]
  ELISA Fc Control (RSU): 1280 RSU
[3]
  ELISA PD-L1 Fc (RSU): 1.59e+07 RSU

B7: ISOP121FR5P1H8 (designed binder, not shown: small tags and cut ends)
chain: LPAPKNLVVSRVTEDSARLSWTAPDAAFDSFVIYYSEQHFYGEAIVLTVPGSERSYDLTGLKPGTEYVVKIYGVKGGETSKPLSAIFTT
notes: as for B1
[1]
  ELISA HSA (RSU): 640 RSU
[2]
  ELISA Fc Control (RSU): 560 RSU
[3]
  ELISA PD-L1 Fc (RSU): 431000 RSU

B8: ISOP121BR5P1B5 (designed binder, not shown: small tags and cut ends)
chain: LPAPKNLVVSRVTEDSARLSWRKQEQYFDSFLIQYQESEKVGEAIVLTVPGSERSYDLTGLKPGTEYTVSIYGVYQRGYHNWFSNPLSAIFTT
notes: as for B1
[1]
  ELISA HSA (RSU): 400 RSU
[2]
  ELISA Fc Control (RSU): 720 RSU
[3]
  ELISA PD-L1 Fc (RSU): 1.48e+06 RSU

B9: ISOP121BR5P1C6 (designed binder, not shown: small tags and cut ends)
chain: LPAPKNLVVSRVTEDSARLSWRKQEQYFDSFLIQYQESEKVGEAIVLTVPGSERSYDLTGLKPGTEYTVSIYGVYSRPKAEFTSNPLSAIFTT
notes: as for B1
[1]
  ELISA HSA (RSU): 720 RSU
[2]
  ELISA Fc Control (RSU): 720 RSU
[3]
  ELISA PD-L1 Fc (RSU): 13400 RSU

B10: ISOP121BR5P1A2 (designed binder, not shown: small tags and cut ends)
chain: LPAPKNLVVSRVTEDSARLSWRFSQEWFDSFLIQYQESEKVGEAIVLTVPGSERSYDLTGLKPGTEYTVSIYGVYARGIHKWLSNPLSAIFTT
notes: as for B1
[1]
  ELISA HSA (RSU): 800 RSU
[2]
  ELISA Fc Control (RSU): 720 RSU
[3]
  ELISA PD-L1 Fc (RSU): 743000 RSU

B11: ISOP121BR5P1E7 (designed binder, not shown: small tags and cut ends)
chain: LPAPKNLVVSRVTEDSARLSWRKQEQYFDSFLIQYQESEKVGEAIVLTVPGSERSYDLTGLKPGTEYTVSIYGVKKWPSTTTTSNPLSAIFTT
notes: as for B1
[1]
  ELISA HSA (RSU): 640 RSU
[2]
  ELISA Fc Control (RSU): 800 RSU
[3]
  ELISA PD-L1 Fc (RSU): 412000 RSU

B12: ISOP194HR9P1D11 (designed binder, not shown: small tags and cut ends)
chain: LPAPKNLVVSRVTEDSARLSWTAPDAAFDSFSILYGELIGDGEAIVLTVPGSERSYDLTGLKPGTEYTVYIFGVKGGRYSRPLSAIFTT
notes: as for B1
[1]
  ELISA HSA (RSU): 1680 RSU
[2]
  ELISA Fc Control (RSU): 480 RSU
[3]
  ELISA PD-L1 Fc (RSU): 6.62e+06 RSU

B13: ISOP121HR5P1F2 (designed binder, not shown: small tags and cut ends)
chain: LPAPKNLVVSRVTEDSARLSWTAPDAAFDSFTILYGETYSGGEAIVLTVPGSERSYDLTGLKPGTEYVVYIFGVKGGKWSRPLSAIFTT
notes: as for B1
[1]
  ELISA HSA (RSU): 640 RSU
[2]
  ELISA Fc Control (RSU): 480 RSU
[3]
  ELISA PD-L1 Fc (RSU): 907000 RSU

B14: ISOP121FR5P1H9 (designed binder, not shown: small tags and cut ends)
chain: LPAPKNLVVSRVTEDSARLSWTAPDAAFDSFSILYGETAPIGEAIVLTVPGSERSYDLTGLKPGTEYVVYIQGVKGGNYSQPLSAIFTT
notes: as for B1
[1]
  ELISA HSA (RSU): 880 RSU
[2]
  ELISA Fc Control (RSU): 720 RSU
[3]
  ELISA PD-L1 Fc (RSU): 1.2e+06 RSU

B15: ISOP194HR9P1B2 (designed binder, not shown: small tags and cut ends)
chain: LPAPKNLVVSRVTEDSARLSWTAPDAAFDSFSILYGELIGDGEAIVLTVPGSERSYDLTGLKPGSEYTVYIFGVKGGRYSRPLSAIFTT
notes: as for B1
[1]
  ELISA HSA (RSU): 1840 RSU
[2]
  ELISA Fc Control (RSU): 400 RSU
[3]
  ELISA PD-L1 Fc (RSU): 5.66e+06 RSU

B16: ISOP121AR5P1C5 (designed binder, not shown: small tags and cut ends)
chain: LPAPKNLVVSRVTEDSARLSWKRSDDEWFDSFLIQYQESEKVGEAIILTVPGSERSYDLTGLKPGTEYTVSIYGVYQRAALWFSNPLSAIFTT
notes: as for B1
[1]
  ELISA HSA (RSU): 560 RSU
[2]
  ELISA Fc Control (RSU): 640 RSU
[3]
  ELISA PD-L1 Fc (RSU): 732000 RSU

B17: ISOP194AR9P1E3 (designed binder, not shown: small tags and cut ends)
chain: LPAPKNLVVSRVTEDSARLSWKRSDDEWFDSFLIQYQESEKVGEAIVLTVPGSERSYDLTGLKPGTEYTVSIYGVYQRAALWFSNPLSAIFTT
notes: as for B1
[1]
  ELISA HSA (RSU): 800 RSU
[2]
  ELISA Fc Control (RSU): 1120 RSU
[3]
  ELISA PD-L1 Fc (RSU): 4.57e+06 RSU

B18: ISOP121BR5P1C5 (designed binder, not shown: small tags and cut ends)
chain: LPAPKNLVVSRVTEDSARLSWFRLRIVQTFDSFLIQYQESEKVGEAIVLTVPGSERSYDLTGLKPGTEYTVSIYGVITVVELLQQSNPLSAIFTT
notes: as for B1
[1]
  ELISA HSA (RSU): 720 RSU
[2]
  ELISA Fc Control (RSU): 400 RSU
[3]
  ELISA PD-L1 Fc (RSU): 11700 RSU

B19: ISOP121GR5P1F7 (designed binder, not shown: small tags and cut ends)
chain: LPAPKNLVVSRVTEDSARLSWTAPDAAFDSFGINYVERASEGEAIDLGVPGSERSYDLTGLKPGTEYFVKIFGVKGGIPSVPLWAWFTT
notes: as for B1
[1]
  ELISA HSA (RSU): 720 RSU
[2]
  ELISA Fc Control (RSU): 640 RSU
[3]
  ELISA PD-L1 Fc (RSU): 697000 RSU

B20: ISOP121BR5P1G3 (designed binder, not shown: small tags and cut ends)
chain: LPAPKNLVVSRVTEDSARLSWKQRTSFHFDSFLIQYQESEKVGEAIVLTVPGSERSYDLTGLKPGTEYTVSIYGVPFWQQWQPESNPLSAIFTT
notes: as for B1
[1]
  ELISA HSA (RSU): 640 RSU
[2]
  ELISA Fc Control (RSU): 560 RSU
[3]
  ELISA PD-L1 Fc (RSU): 771000 RSU

B21: ISOP121AR5P1A8 (designed binder, not shown: small tags and cut ends)
chain: LPAPKNLVVSRVTEDSARLSWGLEWAYQFFDSFLIQYQESEKVGEAIVLTVPGSERSYDLTGLKPGTEYTVSIYGVYLRAIEFYSNPLSAIFTT
notes: as for B1
[1]
  ELISA HSA (RSU): 1040 RSU
[2]
  ELISA Fc Control (RSU): 560 RSU
[3]
  ELISA PD-L1 Fc (RSU): 516000 RSU

B22: ISOP121AR5P1B8 (designed binder, not shown: small tags and cut ends)
chain: LPAPKNLVISRVTEDSARLSWDKRTQFAFDSFLIQYQESEKVGEAIVLTVPGSERSYDLTGLKPGTEYTVSIYGVPTWSGRTQSNPLSAIFTT
notes: as for B1
[1]
  ELISA HSA (RSU): 560 RSU
[2]
  ELISA Fc Control (RSU): 640 RSU
[3]
  ELISA PD-L1 Fc (RSU): 592000 RSU

B23: ISOP121GR5P1D7 (designed binder, not shown: small tags and cut ends)
chain: LPAPKNLVVSRVTEDSARLSWTAPDAAFDSFKIWYQERSIVGEAIFLLVPGSERSYDLTGLKPGTEYIVQIFGVKGGPYSNPLWAPFTT
notes: as for B1
[1]
  ELISA HSA (RSU): 720 RSU
[2]
  ELISA Fc Control (RSU): 720 RSU
[3]
  ELISA PD-L1 Fc (RSU): 792000 RSU

B24: ISOP121BR5P1D7 (designed binder, not shown: small tags and cut ends)
chain: LPAPKNLGCFSRYRRLSRLSWETPYPSLSNFDSFLIQYQESEKVGEAIVLTVPGSERSYDLTGLKPGTEYTVSIYGVLKLSAAWWPSNPLSAIFTT
notes: as for B1
[1]
  ELISA HSA (RSU): 720 RSU
[2]
  ELISA Fc Control (RSU): 800 RSU
[3]
  ELISA PD-L1 Fc (RSU): 12800 RSU

B25: ISOP121AR5P1H1 (designed binder, not shown: small tags and cut ends)
chain: LPAPKNLVVSRVTEDSARLSWKQATKFVFDSFLIQYQESEKVGEAIVLTVPGSERSYDLTGLKPGTEYTVSIYGVPDWFVLESNPLSAIFTT
notes: as for B1
[1]
  ELISA HSA (RSU): 880 RSU
[2]
  ELISA Fc Control (RSU): 880 RSU
[3]
  ELISA PD-L1 Fc (RSU): 1.48e+06 RSU

B26: ISOP121AR5P1E11 (designed binder, not shown: small tags and cut ends)
chain: LPAPKNLVVSRVTEDSARLSWSVQTSFVFDSFLIQYQESEKVGEAIVLTVPGSERSYDLTGLKPGTEYTVSIYGVPLWHGFDSNPLSAIFTT
notes: as for B1
[1]
  ELISA HSA (RSU): 720 RSU
[2]
  ELISA Fc Control (RSU): 720 RSU
[3]
  ELISA PD-L1 Fc (RSU): 1.84e+06 RSU

B27: ISOP121GR5P1D2 (designed binder, not shown: small tags and cut ends)
chain: LPAPKNLVVSRVTEDSARLSWTAPDAAFDSFHILYQERAQSGEAIGLVVPGSERSYDLTGLKPATEYSVQIFGVKGGKLSNPLWAWFTT
notes: as for B1
[1]
  ELISA HSA (RSU): 640 RSU
[2]
  ELISA Fc Control (RSU): 720 RSU
[3]
  ELISA PD-L1 Fc (RSU): 513000 RSU

Source: patent US20180162928A1 (Janssen / Centocor, published 2018)
